Reference: article doi:10.1101/2021.07.14.452405

Assays:
[1] = biological target: Melbournevirus penton base protein (Melbournevirus); assay: cryo-EM structure
[2] = biological target: Melbournevirus major capsid protein (Melbournevirus); assay: cryo-EM structure

Substance	stoichiometry N [1]	stoichiometry N [2]
Melbournevirus penton base protein (natural protein)	5	
Melbournevirus major capsid protein (natural protein)		3
